Assay results taken from article PMC11061317.

Target: GST-tagged Rheb-G63V expressed in HEK293T (UniProt Q15382)
Test: GST pull-down and immunoblotting, band intensity quantified
Conditions: HEK293T cells, transient co-expression; mean ± SEM (n = 3); parent: est. 1.0; read off a plot

Sequence of SFB-tagged ATP6AP1 (wild type, full length) (Q15904 42-470 I469del/V470del): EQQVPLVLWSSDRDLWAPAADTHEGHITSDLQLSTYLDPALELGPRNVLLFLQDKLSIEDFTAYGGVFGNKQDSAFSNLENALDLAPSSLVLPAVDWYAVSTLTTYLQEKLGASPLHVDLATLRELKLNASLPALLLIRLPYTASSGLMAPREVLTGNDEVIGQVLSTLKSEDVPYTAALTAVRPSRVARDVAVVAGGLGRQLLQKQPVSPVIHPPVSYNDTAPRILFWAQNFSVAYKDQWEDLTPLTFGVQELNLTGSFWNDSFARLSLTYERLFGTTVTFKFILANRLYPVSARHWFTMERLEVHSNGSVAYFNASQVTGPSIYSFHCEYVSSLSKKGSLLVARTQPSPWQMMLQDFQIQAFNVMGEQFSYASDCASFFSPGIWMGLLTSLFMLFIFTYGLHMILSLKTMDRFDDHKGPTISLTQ
Sequence of GST-tagged Rheb-G63V expressed in HEK293T (Q15382 whole entry G63V): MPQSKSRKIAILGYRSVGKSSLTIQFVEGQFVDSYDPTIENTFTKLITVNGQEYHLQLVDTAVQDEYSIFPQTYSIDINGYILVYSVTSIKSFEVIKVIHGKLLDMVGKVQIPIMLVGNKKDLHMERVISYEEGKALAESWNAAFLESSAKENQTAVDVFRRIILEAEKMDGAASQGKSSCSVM

Substance “SFB-tagged ATP6AP1 (wild type, full length) (from UniProt Q15904) I469del; V470del” has a ratio to parent (relative to ATP6AP1) of 0.77.
